In patent publication US20250092133A1 (Amgen, published 2025):

T1: Hu CDH3 Dom1C mu (aa 180-215), human/mouse chimeric CDH3 on CHO cells (chimeric hu/mu, UniProt P22223 108-681 (human entry))
T1 chain: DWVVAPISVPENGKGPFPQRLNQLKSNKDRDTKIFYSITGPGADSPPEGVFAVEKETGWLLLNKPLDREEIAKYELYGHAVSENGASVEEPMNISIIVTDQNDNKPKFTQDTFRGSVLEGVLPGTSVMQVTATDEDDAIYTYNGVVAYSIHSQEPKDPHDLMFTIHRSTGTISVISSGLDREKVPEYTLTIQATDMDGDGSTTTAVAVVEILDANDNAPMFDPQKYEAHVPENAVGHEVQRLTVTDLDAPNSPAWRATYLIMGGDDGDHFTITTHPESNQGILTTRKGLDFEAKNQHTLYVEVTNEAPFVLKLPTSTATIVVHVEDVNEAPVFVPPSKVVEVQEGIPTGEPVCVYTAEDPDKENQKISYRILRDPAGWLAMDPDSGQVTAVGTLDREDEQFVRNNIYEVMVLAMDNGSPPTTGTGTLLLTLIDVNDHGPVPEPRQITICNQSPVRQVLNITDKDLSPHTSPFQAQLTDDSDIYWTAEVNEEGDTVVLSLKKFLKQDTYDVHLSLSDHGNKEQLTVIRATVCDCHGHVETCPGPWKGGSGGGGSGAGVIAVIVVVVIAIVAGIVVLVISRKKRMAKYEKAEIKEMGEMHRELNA

T2: Hu CDH3 Dom2 mu (aa 216-327), human/mouse chimeric CDH3 on CHO cells (chimeric hu/mu)
T2 chain: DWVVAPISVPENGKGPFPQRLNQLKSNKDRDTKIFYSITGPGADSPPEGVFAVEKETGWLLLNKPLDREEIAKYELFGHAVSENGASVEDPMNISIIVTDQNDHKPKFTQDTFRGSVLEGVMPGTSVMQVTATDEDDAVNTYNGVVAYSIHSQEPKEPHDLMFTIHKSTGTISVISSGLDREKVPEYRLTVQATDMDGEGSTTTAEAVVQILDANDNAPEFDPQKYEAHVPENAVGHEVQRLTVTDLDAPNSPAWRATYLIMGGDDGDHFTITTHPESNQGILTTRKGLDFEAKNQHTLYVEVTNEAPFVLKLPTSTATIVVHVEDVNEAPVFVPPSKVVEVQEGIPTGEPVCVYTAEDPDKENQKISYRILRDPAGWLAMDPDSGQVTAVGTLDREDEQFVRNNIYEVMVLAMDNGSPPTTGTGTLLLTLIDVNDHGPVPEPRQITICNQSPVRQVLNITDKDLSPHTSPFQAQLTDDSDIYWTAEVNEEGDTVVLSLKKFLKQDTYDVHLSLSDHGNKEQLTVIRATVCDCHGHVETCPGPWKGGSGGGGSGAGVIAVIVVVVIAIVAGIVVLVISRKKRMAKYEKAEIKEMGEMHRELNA

T3: Hu CDH3 Dom1 mu (aa 108-215), human/mouse chimeric CDH3 on CHO cells (chimeric hu/mu)
T3 chain: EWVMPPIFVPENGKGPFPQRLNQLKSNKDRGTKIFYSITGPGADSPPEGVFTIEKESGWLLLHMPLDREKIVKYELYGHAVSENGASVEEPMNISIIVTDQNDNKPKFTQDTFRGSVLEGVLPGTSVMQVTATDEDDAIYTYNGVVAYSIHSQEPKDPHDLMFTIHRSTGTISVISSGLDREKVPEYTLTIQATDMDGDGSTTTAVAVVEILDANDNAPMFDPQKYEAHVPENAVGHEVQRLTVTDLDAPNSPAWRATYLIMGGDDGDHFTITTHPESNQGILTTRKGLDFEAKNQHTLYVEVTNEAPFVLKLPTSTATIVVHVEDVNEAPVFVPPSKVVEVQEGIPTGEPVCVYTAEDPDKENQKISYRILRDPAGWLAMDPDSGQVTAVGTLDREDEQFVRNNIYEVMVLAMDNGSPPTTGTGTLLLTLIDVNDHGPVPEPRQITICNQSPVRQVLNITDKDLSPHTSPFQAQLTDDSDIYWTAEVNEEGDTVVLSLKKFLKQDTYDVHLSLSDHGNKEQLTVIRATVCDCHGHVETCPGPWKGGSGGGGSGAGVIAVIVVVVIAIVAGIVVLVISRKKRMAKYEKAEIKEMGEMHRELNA


Experiments:
[1] = biological target: T1, Hu CDH3 Dom1C mu (aa 180-215), …; assay: flow cytometry, transfected CHO cells; crude undiluted periplasmic scFv extract; anti-FLAG M2 + anti-mouse IgG Fcγ-PE; control PBS/2% FCS
Method: (§1) Cells transfected with human or murine CDH3, or with the chimeric human/mouse CDH3 molecules (see Example 1) were stained with crude, undiluted periplasmic extract containing scFv binding to human/macaque CDH3. […] As negative control, cells were incubated with PBS/2% FCS instead of the periplasmic extract. The samples were measured by flow cytometry.

[2] = biological target: T2, Hu CDH3 Dom2 mu (aa 216-327), …; assay: as above
Method: as §1

[3] = biological target: T4, human CDH3 (P-cadherin) on cells (human, UniProt P22223 108-829); assay: as above
T4 construct: The entry includes signal peptide and pro-peptide; extracellular domain D1 starts at aa 108; also called hu CDH3; hu CDH-3
Method: as §1

[4] = biological target: Hu CDH3 Dom3 mu (aa 328-440), human/mouse chimeric CDH3 on CHO cells (chimeric hu/mu); assay: as above
Method: as §1

[5] = biological target: T3, Hu CDH3 Dom1 mu (aa 108-215), …; assay: flow cytometry, transfected CHO cells; crude periplasmic scFv extract; anti-FLAG M2 + anti-mouse IgG Fcγ-PE
Method: as §1

Row | binding result [1] | binding result [2] | binding result [3] | binding result [4] | binding result [5] | Binder
1 | binds | binds | binds | binds | no binding | CDH3-9 (scFv, Used as crude periplasmic extract and detected through a FLAG tag; also called CDH3-9 scFv) scFv: EVQLVEESGGDLVKPGGSLKLSCAASGFTFSTYGMSWVRQTPDKRLEWVATISSGGHYSYYPDSVKGRFTISRDNAKNTLYLQMSSLKSEDTAMYYCASYYYGSPFAYWGQGTTVTVSSGGGGSGGGGSGGGGSELQMTQSPSSLSASLGERVSLTCRASQDIGSSLNWLQQKPDGTIKRLIYDTSSLDSGVPKRFSGSRSGSDYSLTISSLESEDFGDYYCVQYGSSPLTFGAGTKLEIK
2 | binds | binds | binds | binds | no binding | CDH3-8 (scFv, Used as crude periplasmic extract and detected through a FLAG tag; also called CDH3-8 scFv) scFv: EVQLVEQSGAEVVKPGASVKITCKASGYAFSSYWMNWVRQRPGKGLEWIGHIYPGDGDTNYNGKFKGKVTLTADKSSNTAYMQLSDLTPEDSAVYFCARDRGSFGAWFAYWGQGTTVTVSSGGGGSGGGGSGGGGSELVMTQTPSSLSASLGDRVTISCRASQDISNYLNWYQQKPDGTVKLLIYYTSRLHSGVPSRFSGSGSGTDYSLTISNLEQEDIATYFCQQGNRNPPTFGGGTKLEIK
3 | binds | binds | binds | binds | no binding | CDH3-10 scFv (scFv) scFv: EVQLVEESGGGLVKPGGSLKLSCAASGFTFSSYAMSWVRQTPDKRLEWVATISSGGHYTYYPDSVKGRFTISRDNAKNTLYLQMSSLKSEDTAMYYCASYYYGIPFGYWGQGTTVTVSSGGGGSGGGGSGGGGSELVMTQSPSSLSASLGEGVSLTCRASQDIGINLIWLRQEPDGTIKRLIYDTSSLDSGVPKRFSGSRSGSDYSLTISSLESEDFVHYYCLQYGSSPLTFGAGTKLEIK
